Measurements as given in article PMC12397386, “Structural basis of Fusobacterium nucleatum adhesin Fap2 interaction with receptors on cancer and immune cells” (Nature Communications, 2025).

How the values were obtained:
[1] = molecular target: fibronectin (Homo sapiens) (UniProt P02751); details: cited from earlier work
[2] = molecular target: hTIGIT-ECD-Fc (human TIGIT extracellular domain with C-terminal Fc tag, Acro Biosystems #TIT-H5254) (human) (UniProt Q495A1); assay: SPR; Biacore 3000; hTIGIT-ECD-Fc immobilised on CM5 chip (3220 RU); Fap2-ECD injected at 52.5 to 368 nM; 25 mM HEPES-NaOH pH 7.5, 50 mM NaCl, 0.005% Tween-20; 25 °C; global 1:1 Langmuir fit
TIGIT (Homo sapiens) = TIGIT (Homo sapiens) (UniProt Q495A1); details: cited from earlier work
[3] = molecular target: T1, Fap2 extracellular domain (Fap2-ECD), residues 42-3271, purified after release from the AIDA autotransporter (Fusobacterium nucleatum subsp. …, UniProt A0ABV3Y820 42-3271); assay: SPR; Biacore 3000; hTIGIT-ECD-Fc amine-coupled to a CM5 chip (3220 RU); Fap2-ECD injected at 52.5-368 nM; 25 mM HEPES-NaOH pH 7.5, 50 mM NaCl, 0.005% Tween-20; 25 °C; 1:1 Langmuir global fit; details: both partners purified
T1 construct: Linker GSA before and SAG after the His8 tag; what is left of the TEV site after cleavage follows it; Gene codon-optimised for E. coli; also called Fap2 WT; recombinant Fap2-ECD; not shown: His8, C-terminal, kept

Chain of fibronectin (Homo sapiens) (P02751 32-2477): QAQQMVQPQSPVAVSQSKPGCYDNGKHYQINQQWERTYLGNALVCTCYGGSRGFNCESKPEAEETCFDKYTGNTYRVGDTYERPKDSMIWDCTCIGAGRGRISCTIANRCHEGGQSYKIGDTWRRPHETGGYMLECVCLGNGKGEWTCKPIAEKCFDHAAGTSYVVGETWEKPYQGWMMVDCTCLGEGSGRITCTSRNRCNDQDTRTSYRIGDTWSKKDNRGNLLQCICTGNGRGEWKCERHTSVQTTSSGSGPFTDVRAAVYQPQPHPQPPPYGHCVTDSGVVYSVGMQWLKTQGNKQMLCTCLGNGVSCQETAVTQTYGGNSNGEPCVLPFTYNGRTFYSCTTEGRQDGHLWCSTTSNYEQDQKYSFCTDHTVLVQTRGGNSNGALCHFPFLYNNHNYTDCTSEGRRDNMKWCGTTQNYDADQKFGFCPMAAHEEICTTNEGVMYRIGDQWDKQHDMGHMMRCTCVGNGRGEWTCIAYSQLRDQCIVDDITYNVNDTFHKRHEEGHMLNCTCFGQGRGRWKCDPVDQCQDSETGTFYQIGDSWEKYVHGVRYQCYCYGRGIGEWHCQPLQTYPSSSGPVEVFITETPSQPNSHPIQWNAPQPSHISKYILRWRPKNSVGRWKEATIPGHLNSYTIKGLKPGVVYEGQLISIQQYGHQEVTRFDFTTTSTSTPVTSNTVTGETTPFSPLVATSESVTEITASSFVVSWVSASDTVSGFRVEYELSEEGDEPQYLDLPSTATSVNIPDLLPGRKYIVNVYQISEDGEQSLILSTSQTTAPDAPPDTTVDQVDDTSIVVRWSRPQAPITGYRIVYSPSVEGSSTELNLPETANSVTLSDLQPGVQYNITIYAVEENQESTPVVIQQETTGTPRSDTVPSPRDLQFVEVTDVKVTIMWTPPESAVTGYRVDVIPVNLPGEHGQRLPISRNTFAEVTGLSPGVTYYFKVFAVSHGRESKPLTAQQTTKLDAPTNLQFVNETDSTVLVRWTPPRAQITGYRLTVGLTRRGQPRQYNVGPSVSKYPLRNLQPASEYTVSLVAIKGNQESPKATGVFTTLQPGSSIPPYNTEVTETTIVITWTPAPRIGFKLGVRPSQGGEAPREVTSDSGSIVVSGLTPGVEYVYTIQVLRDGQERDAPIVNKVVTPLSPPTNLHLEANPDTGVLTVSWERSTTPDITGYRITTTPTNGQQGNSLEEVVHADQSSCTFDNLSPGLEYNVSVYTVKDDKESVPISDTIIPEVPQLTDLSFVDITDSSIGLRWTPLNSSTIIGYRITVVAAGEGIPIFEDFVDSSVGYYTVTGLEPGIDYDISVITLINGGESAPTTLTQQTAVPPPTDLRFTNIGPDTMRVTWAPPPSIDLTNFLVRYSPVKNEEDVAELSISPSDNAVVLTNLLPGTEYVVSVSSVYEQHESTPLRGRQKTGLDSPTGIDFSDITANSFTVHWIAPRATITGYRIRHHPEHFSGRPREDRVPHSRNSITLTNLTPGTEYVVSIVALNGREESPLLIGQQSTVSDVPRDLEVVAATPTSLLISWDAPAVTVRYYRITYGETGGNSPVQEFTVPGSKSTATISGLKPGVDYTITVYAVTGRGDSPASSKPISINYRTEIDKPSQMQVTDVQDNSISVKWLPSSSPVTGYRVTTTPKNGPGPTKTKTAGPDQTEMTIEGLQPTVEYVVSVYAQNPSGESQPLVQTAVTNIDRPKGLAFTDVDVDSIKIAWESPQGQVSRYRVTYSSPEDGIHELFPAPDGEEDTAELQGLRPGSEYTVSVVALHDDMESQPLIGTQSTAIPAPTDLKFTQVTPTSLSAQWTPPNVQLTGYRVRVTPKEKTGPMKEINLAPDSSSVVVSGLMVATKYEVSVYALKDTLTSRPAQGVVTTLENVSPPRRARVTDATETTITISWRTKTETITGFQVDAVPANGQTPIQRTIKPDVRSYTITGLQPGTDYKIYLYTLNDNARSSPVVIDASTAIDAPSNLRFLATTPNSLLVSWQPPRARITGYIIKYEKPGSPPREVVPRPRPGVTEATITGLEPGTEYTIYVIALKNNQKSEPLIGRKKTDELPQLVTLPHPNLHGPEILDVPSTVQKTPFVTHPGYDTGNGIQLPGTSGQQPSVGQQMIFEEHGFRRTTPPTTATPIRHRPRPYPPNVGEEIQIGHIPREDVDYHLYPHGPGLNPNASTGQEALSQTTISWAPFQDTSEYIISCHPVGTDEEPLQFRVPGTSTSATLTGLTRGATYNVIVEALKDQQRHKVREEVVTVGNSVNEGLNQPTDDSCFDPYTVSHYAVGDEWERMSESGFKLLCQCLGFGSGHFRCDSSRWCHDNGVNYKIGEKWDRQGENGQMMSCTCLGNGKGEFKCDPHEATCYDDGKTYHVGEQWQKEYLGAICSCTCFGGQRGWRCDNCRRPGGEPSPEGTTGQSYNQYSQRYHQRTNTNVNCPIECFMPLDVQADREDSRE

For lipoprotein P4 (from UniProt P26093), the Kd [1] is listed as 10 nM.

“Fap2 extracellular domain (Fap2-ECD, residues 42-3271) from Fusobacterium nucleatum subsp. nucleatum ATCC23726, wild type (domain or fragment)” showed a Ka [2] of 1.72e+06 M⁻¹, a Kd [2] of 583 nM and a koff [2] of 0.0308 s⁻¹.

In the case of Nectin-2 (from UniProt Q92692), the Kd (TIGIT (Homo sapiens)) is given as 6000 nM.

B1: human TIGIT extracellular domain with C-terminal Fc tag (Acro Biosystems #TIT-H5254) (Fc fusion, UniProt Q495A1 22-141, looked up)
chain: MMTGTIETTGNISAEKGGSIILQCHLSSTTAQVTQVNWEQQDQLLAICNADLGWHISPSFKDRVAPGPGLGLTLQSLTVNDTGEYFCIYHTYPDGTYTGRIFLEVLESSVAEHGARFQIP
notes: TIGIT, human, extracellular domain; The text calls it glycosylated hTIGIT-ECD in the SPR; also called hTIGIT-ECD-Fc; hTIGIT-Fc; source: bought: Acro Biosystems, #TIT-H5254; not shown: Fc, C-terminal, kept
B1 gave a Kd [3] of ~600 nM and a koff [3] of 0.03 ± 0.001 s⁻¹.
